Test: yeast display, Sf9 membrane polyspecificity reagent, FACS + sequencing; frameworks hold sequencing errors
In short: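 Using colony PCR, genes from sorted yeast display clones were amplified, then sequenced on MiSeq at 2 × 250 and filtered by CDR length. The clones had been stained with 10% biotinylated, detergent-solubilized Sf9 membrane reagent for 1 hour at 4 °C and sorted by FACS into low and high (top ~1%) gates on anti-HA and streptavidin fluorescence. Polyreactivity labels come from the gate of origin.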

Sequence | polyreactivity (PSR sort gate)
QVQLVESGGGLVQAGGSLRLSCAASGSIFRTYAMGWYRQAPGKEWELVAAISGSGSRTYYADSVKGRFTISRDNAKNTVYLQMNSLKPEDTAVYYCAAQTFAYKVFFLYDYWGQGTQVTVSS | low polyreactivity
QVQLVESGGGLVQAGGSLRLSCAASGFTFIGYAMGWYRQAPGKERELVAAITWRGGRTYYADSVKGRFTISRDNAKNTVYLQMNSLKPEDTAVYYCAADGYTVVNSYYWGQGTQVTVSS | high polyreactivity
QVQLVESGGGLVQAGGSLRLSCAASGFTFRYNAMGWYRQAPGKERELVAAISSRGGSTYYADSVKGRFTISRDNAKNTVYLQMNSLKPEDTAVYYCALYGGLGDRFRPRYYWGQGTQVTVSS | high polyreactivity
QVQLVESGGGLVQAGGSLRISCAASGRTFVRYAMGWYRQAPGKERELVAAIDSSGGRTYYADSVKGRFTISRDKAKNTVYLQMNSLKPEDTAVYYCNARRLASYRGYSWGQGTQVTVSS | high polyreactivity
QVQLVESGGGLVQAGGSLRLSCAASGLIFSWYDMGWYRQAPGIERELVAAITTDGDDTYYADSVKGRFTISRDNAKNTVYLQLNSLKPEDTAVYYCAADSELAIRYPDRDYDSWGHGTQVTVSS | low polyreactivity
QVQLVESGGGLVQAGGSLRLSCAASGSNFRTYPIGWYRQAPGKERELVAAISSNGGSTYYADSVKGRFTISRDNAKNTVYLQMNSLKPEDTAVYYCANDQTGYWYNRYGYWGQGTQVTVSS | low polyreactivity
QVQLVESGGGLVQAGGSLRLSCAASGRTFPAYAMGWYRQAPGKERELVARISYSGGNTYYADSVKGRFTISRDNAKNTVYLQMNSLKPEDTAVYYCAATRSHYPYRSGGDYWGQGTQVTVSS | low polyreactivity
QVQLVESGGGLVQAGGSLRLSCAASGRTFSENAMGWYRQAPGKERELVAAISGSGGRTYYADSVKGRFTISRDNAKNTVYLQMNILKPEDTAVYFCGKVTRYGSTYDYWGQGTQVTVSS | high polyreactivity
QVQLVESGGGLVQAGGSLRLICAASGSTFPKYAMGWYRQAPGKERELVASISVTTGSTYYADSVKGRFTISRDYAKNTVYLQMNSLKPEDTAVYYCAKRTYSRKFRGAYNYWGQGTQVTVSS | high polyreactivity
QVQLVESGGGLVQAGGSLRLSCAASGSTFYRNAMGWYRQAPGKERELVAGISRRGGSTYYADSVKGRFTISRDNAKNSVYLQMNSLKPEDTAVYYCAADVRSGGVAYGYGYWGQGTQVTVSS | high polyreactivity
QVQLVESGGGLVQAGGRLRLSCAASGRIFQHNTMGWYRQAPGKEREFVAAIRRSGGSTYYADSVKGRFTISRDNAKNTVYLQMNSLRPEDTAVYYCAARDYPTGTRRWGGGDSWGQGTQVTVSS | low polyreactivity
QVQLVESGGGLVHAGGSLRLSCAASGLISYRYAMGWYRQAPGKERELVAAISWRGGSTYYADSVKGRFTISRDNAKNTVYLQMNSLKPDDTAVYYCNALGLGLFDYWGQGTQVTVSS | high polyreactivity
QVQLVESGGGLVQAGGSLRLSCAASGRTFAAYAMGWYRPAPGKERELVAGITSSSVRTYYADSVKGRFTISRDNAKNTVYLQMNSLKPEDTAVYYRTARADGSSSRWRPYSKFYYWGQGTQVTVSS | low polyreactivity
QVQLVESGGGLVQAGGSLRLSCAASGSTFTWYAMGWYRQAPGKERELVADISYGGGSTYYADSVKGRFTISRDNAKNTVYLQMNSLKPEDTAVYYCAVDDGFAYSYDWTYRYAEYYYWGQGTQVTVSS | low polyreactivity
QVQLVESGGGLVQAGGSLRLSCAASGSTLANYAMGWYRQAPGKERELVAAINSGGSTYYADSVKGRFTISRDNAKNTVYLQMNSLKPEDTAVYYCAAETPNYYGRWEPVWHYYWGQGTQVTVSS | high polyreactivity
QVQLVESGGGLVQAGGSLRLSCAASGRTFFANAMGWYRQAPGKERELVAAITSNTGTTYYADSVKGRFTISRDNAKNTVYLQMNSLKPEDTAVYYCAARYTFRYEYWGQGTQVTVSS | high polyreactivity

Sequence | polyreactivity (PSR sort gate)
QVQLVESGGGLVQAGGSLRLICAATGRNFRYYAMGWYRQAAGKERQLVAAIRNGGSTYYADSVKGRFTISRDNAKNTVYLQMNSLKPEDTAVYYCAGRYNYVSHRGGDWGHGTQVTVSS | high polyreactivity
QVQLVQSGGGLVQAGGSLRLSCAASGSTFSQYVMGWYRQARGKERELVAAINKNGGRTYYADSVKGRFTISRDNAKNTVYFQMISLKPEDTAVYYCAADVYGQDDYWGQGTQVTVSS | high polyreactivity
QVQLVESGGGLVQAGGSLRLSCAASGRIFAYYAMGWYRQAPGKERELVAAITSDGSSTYYADSVKGRFTISRDNAKNTVYLQMNSLKPEDTAVDYCAAGTYPFWDWIFDLWVDYWGQGTQVTVSS | high polyreactivity
QVQLVESGGGLVQAGGSLRLSCAASGSTFHWYTMGWYRPAPGKESELVAAITSGTSTYYADSVKGRFTISRDNSKITVYLQMNSLKPEDTAVYYCNTEGVWSVYGLYDYWGQGTQVTVSS | low polyreactivity
QVQLEESGGGLVQAGGSLRLSCAASGITFERYVMGWYRQAPGKERELVASISRSGSTYYADSVKGRFTISRDNAKNTVYLQMNSLKPEDTAVYYCNADRFWFHWVYSRYHYDYWGQGTQVTVSS | high polyreactivity
QVQLVESGGGLVQAGGSLRLSCAASGSIFEPNAMGRYRQAPGKEREFVAAISGSGGSTYYADSVKGRFTISRDNAKNTVYLQMNSLKPEDTAVYYCATRGKRSYFRTFYYWGEGTQVTVSS | high polyreactivity
QVQLVESGGGLVQAGGSLRLSCAASGYSFYKYAMGWYRQAPGKERELVAAISYSGGSTYYADSVKGRFTISRDNAKNTVYLQMNSLKPEDTAVYYCAAVGATKGLRYGYWGQGTQVTVSS | low polyreactivity
QVQLVESGGGLVQAGGSLRLSCAASGSIIAGNVMGWYRQAPGKERELVAAISRRGGRTYYADSVKGRFTISRDNAKNTVYLQMNSLKPEDTAVYYCAARRDPVLGKSDFWGQGTQVTVSS | high polyreactivity
QVQLVESGGGLVQAGGSLRLSCAASGRIFWNYAMGWYRQAPGKERELVAGISSSDGSTYYADSVKGRFTISRDNAKNTVYFQMNSLKPEDTAVYYCAVDKGGRYHVENYYWGQGTQVTVSS | low polyreactivity
QVQLVESGGGLVHAGGSLRLSCAASGSTFPSYAMGWYRQAPGKERELVAAINSGGGTYYADSVKGRFTISRDNAKNTVYLQRNSLKPEDTAVYYCATSRYDYTKTEGGYWGQGNQVTVSS | low polyreactivity
QVQLVESGGGLVQAGGSLRLSCAASGITFSSNTRGCYRQATGNETELVAAISSSGGSTYYADSVKGRFTISRDNAKNTFYLQINSLKPEDTAVYYCNTVRFRGWVWWEYDYWGQGTQVTVSS | high polyreactivity
QVQLVESGGGLVQAGGSLRLSCAASGFIFSRYAMGCYRQSPGKERELVATIRRSGRTNYADSVKGRFTISRDNAKNTFYLQMNSLKPEDTAVYYCAKPGQWHRYHYGSWGQGTQVTVSS | low polyreactivity
QVQLVESGGALVQAGVSLRLSCAASGSIFRFYAMGWNKQAPGKERELVAAITSGGSTNYADSVKGRFTISRDNEKNTVYLQMNSLKPEDTAVFYCAAELVFFFIFDYWGQGTQVTVSS | low polyreactivity
QVQLVESGGGLVQAGGSLRLSCAASGGIFVRYAMGWYRQAPGKERELVAAISSSGDRTYYADSVKGRFTISRDNAKNTVYLQMHSLKPEDTAVYYCNADRGHDKVDYWGQATQVTVSS | low polyreactivity
QVQLVESGGGLVQAGGSLRLSCAASGGTFVPNAMGWYRQAPGKERELVAAITWSGARTYYADSVKGRFTISRDNAKNTVYLQMNSLKPEDTAVYYCAAVYNYYIVYEYYYWGQGTQVTVSS | high polyreactivity

From the nanobody polyreactivity screen of Harvey et al. (2022)
